The numbers were not newly measured in publication PMC11231438, which cites them from elsewhere.

The data set has as its target plasminogen (Homo sapiens) (UniProt P00747).
UniProt P00747, sequence (P00747 20-810): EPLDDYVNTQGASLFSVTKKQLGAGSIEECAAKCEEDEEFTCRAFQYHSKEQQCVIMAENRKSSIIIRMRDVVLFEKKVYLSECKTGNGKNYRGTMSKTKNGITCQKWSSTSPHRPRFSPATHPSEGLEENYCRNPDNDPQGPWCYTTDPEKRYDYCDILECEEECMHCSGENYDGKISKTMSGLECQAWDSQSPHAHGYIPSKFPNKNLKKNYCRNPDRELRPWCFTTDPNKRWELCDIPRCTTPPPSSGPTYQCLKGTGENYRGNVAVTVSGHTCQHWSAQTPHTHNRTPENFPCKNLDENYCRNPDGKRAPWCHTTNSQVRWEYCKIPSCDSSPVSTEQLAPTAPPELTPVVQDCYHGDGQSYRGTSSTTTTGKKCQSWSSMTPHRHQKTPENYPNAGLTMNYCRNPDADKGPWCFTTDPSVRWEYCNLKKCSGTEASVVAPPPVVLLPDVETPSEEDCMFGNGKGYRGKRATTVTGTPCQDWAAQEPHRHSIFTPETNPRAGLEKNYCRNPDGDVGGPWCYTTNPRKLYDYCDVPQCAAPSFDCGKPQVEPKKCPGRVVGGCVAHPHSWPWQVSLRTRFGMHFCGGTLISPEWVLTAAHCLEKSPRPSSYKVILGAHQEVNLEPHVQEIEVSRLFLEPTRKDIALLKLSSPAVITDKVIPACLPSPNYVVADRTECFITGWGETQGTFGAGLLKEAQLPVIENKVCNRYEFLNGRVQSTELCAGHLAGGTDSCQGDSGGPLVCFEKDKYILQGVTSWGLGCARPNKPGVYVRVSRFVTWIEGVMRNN

What is called Kd is the concentration at which binding is half-saturated. Consider enolase (from UniProt Q96X30), for which the Kd was 0.53 µM.
